Data as given in patent US20190085054A1.

Legend:
Test in all cases: cell-based or functional assay
[1] = target: human MMP2 (pro-MMP2 activated with APMA) (human) (UniProt P08253)
active MMP13 = active MMP13 (UniProt P45452)
[2] = target: catalytic domain of human MMP9 (human) (UniProt P14780)
Sequence of catalytic domain of human MMP9 (human) (P14780 107-444 limits assumed): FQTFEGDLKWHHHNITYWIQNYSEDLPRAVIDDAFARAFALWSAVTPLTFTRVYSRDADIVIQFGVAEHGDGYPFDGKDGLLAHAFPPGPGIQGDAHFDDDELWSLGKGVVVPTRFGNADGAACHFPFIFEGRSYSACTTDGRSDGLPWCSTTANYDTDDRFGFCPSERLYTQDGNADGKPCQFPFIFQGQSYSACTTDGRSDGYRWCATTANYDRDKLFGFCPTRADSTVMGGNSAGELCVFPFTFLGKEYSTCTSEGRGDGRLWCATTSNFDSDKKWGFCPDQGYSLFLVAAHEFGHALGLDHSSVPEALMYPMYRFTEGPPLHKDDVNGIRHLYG

Sequence of human MMP2 (pro-MMP2 activated with APMA) (human) (P08253 30-660): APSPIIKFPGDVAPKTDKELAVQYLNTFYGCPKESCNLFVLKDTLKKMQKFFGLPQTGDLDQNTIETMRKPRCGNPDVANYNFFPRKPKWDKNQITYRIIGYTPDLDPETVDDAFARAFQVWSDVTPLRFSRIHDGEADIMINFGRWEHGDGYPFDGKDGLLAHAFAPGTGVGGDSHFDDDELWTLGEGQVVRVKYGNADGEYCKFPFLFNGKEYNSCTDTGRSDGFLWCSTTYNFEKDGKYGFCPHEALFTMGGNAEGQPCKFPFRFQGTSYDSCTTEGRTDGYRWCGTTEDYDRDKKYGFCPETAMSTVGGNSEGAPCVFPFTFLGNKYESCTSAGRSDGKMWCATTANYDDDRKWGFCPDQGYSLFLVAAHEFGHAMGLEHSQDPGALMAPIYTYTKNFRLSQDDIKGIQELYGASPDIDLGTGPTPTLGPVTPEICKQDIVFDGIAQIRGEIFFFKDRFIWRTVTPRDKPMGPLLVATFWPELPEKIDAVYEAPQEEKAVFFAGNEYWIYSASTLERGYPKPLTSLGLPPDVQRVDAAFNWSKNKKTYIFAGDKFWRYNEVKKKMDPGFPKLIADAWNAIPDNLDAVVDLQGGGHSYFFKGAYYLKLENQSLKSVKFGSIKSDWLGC

Row | Substance | MMP2 IC50 [1] [nM] | MMP13 IC50 (active MMP13) [nM] | MMP9 IC50 [2] [nM]
1 | TIMP-3 mutein F57N | 0.5 | 0.5 | 4.6
2 | TIMP-3 mutein K45S, F57N | 0.3 | – | 4
3 | TIMP-3 mutein P56N, G58T | 1 | 3.1 | 2.3
4 | TIMP-3 mutein T63N, K65T | 0.8 | 2.2 | 0.5
